According to article PMC4434323:

Each sequence was assayed against T1, end-1 (F58E10.2) (Caenorhabditis elegans) (UniProt G5EDN4).
T1 sequence: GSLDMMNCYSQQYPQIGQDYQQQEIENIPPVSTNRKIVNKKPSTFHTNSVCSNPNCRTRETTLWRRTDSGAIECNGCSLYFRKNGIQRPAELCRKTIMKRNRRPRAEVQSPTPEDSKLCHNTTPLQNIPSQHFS

Row | Sequence | binding signal (PBM E-score (-0.5 to 0.5))
1 | AGATAAGA (double strand) [8-mer AGATAAGA] | 0.484
2 | AGATAAGG (double strand) [8-mer AGATAAGG] | 0.484
3 | ATCTAATC (double strand) [8-mer ATCTAATC] | 0.487
4 | ATCTTATC (double strand) [8-mer ATCTTATC] | 0.495
5 | CCGATAAG (double strand) [8-mer CCGATAAG] | 0.486
6 | CCGATATC (double strand) [8-mer CCGATATC] | 0.487
7 | CCTTATCG (double strand) [8-mer CCTTATCG] | 0.486
8 | CGATAACG (double strand) [8-mer CGATAACG] | 0.483
9 | CGATAAGA (double strand) [8-mer CGATAAGA] | 0.487
10 | CGATATCG (double strand) [8-mer CGATATCG] | 0.496
11 | GATATCGA (double strand) [8-mer GATATCGA] | 0.484
12 | GATATCGC (double strand) [8-mer GATATCGC] | 0.487
13 | TATCGATA (double strand) [8-mer TATCGATA] | 0.49

What follows are sequences tested against T2, elt-6 (F52C12.5) (Caenorhabditis elegans) (UniProt G5EGN3).
T2 sequence: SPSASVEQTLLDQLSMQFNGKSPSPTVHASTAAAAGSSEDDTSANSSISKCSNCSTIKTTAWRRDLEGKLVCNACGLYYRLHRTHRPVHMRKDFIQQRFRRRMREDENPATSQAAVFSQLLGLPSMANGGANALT

Row | Sequence | binding signal (PBM E-score (-0.5 to 0.5))
14 | AGTGATAA (double strand) [8-mer AGTGATAA] | 0.495
15 | CTTATCAC (double strand) [8-mer CTTATCAC] | 0.496
16 | GCTTATCA (double strand) [8-mer GCTTATCA] | 0.493
17 | GGTGATAA (double strand) [8-mer GGTGATAA] | 0.494
18 | GTGATAAA (double strand) [8-mer GTGATAAA] | 0.491
19 | GTGATAAC (double strand) [8-mer GTGATAAC] | 0.492
20 | TCTTATCA (double strand) [8-mer TCTTATCA] | 0.495

The sequences below were run against T3, fkh-9 (K03C7.2) (Caenorhabditis elegans) (UniProt Q21187).
T3 sequence: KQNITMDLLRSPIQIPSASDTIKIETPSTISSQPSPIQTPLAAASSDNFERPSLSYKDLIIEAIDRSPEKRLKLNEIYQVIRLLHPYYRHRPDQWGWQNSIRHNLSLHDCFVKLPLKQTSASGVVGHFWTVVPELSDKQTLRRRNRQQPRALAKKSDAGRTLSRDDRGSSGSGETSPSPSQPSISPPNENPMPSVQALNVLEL

Row | Sequence | binding signal (PBM E-score (-0.5 to 0.5))
21 | CAATAACA (double strand) [8-mer CAATAACA] | 0.488
22 | CATAACAA (double strand) [8-mer CATAACAA] | 0.486
23 | GAAAACAA (double strand) [8-mer GAAAACAA] | 0.489
24 | TAAAAACA (double strand) [8-mer TAAAAACA] | 0.485
25 | TCAAAACA (double strand) [8-mer TCAAAACA] | 0.491
26 | TCATAACA (double strand) [8-mer TCATAACA] | 0.485

These sequences were tested against T4, end-3 (F58E10.5) (Caenorhabditis elegans) (UniProt Q9XUW7).
T4 sequence: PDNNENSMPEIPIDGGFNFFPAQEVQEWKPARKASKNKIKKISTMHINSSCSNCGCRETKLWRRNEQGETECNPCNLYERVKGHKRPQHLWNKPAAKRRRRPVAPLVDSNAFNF

Row | Sequence | binding signal (PBM E-score (-0.5 to 0.5))
27 | AAGATAAG (double strand) [8-mer AAGATAAG] | 0.493
28 | AGAGATAA (double strand) [8-mer AGAGATAA] | 0.492
29 | AGATAACA (double strand) [8-mer AGATAACA] | 0.488
30 | AGATAACG (double strand) [8-mer AGATAACG] | 0.49
31 | AGATAAGA (double strand) [8-mer AGATAAGA] | 0.496
32 | AGATAAGC (double strand) [8-mer AGATAAGC] | 0.493
33 | AGATAAGG (double strand) [8-mer AGATAAGG] | 0.496
34 | ATCTTATC (double strand) [8-mer ATCTTATC] | 0.497
35 | CAGATAAG (double strand) [8-mer CAGATAAG] | 0.491
36 | CTTATCTA (double strand) [8-mer CTTATCTA] | 0.493
37 | CTTATCTC (double strand) [8-mer CTTATCTC] | 0.496
38 | GAGATAAC (double strand) [8-mer GAGATAAC] | 0.487
39 | GATAAGAA (double strand) [8-mer GATAAGAA] | 0.488
40 | GGAGATAA (double strand) [8-mer GGAGATAA] | 0.49
41 | TCTTATCA (double strand) [8-mer TCTTATCA] | 0.491
